Drawing on the supplement of paper PMC10567573, this text covers protein stability index for 94 variants.

Sequences and labels used below:
B1: ATL3 (parent)
chain: EKALASILLQDHIRDLDVVVVSVA
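Further: lentivirally expressed fusions sorted by FACS into six bins by GFP to DsRed ratio, PSI derived from sequencing read proportions per bin multiplied by bin number.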

In the data set the parent is B1. Description: protein stability index of a GFP-peptide fusion (GPS, HEK-293T) (PSI 1-6); higher = more stable. As to conditions: c terminus: a fixed tail appended.
EKALASPLLQDHIRDLDVVVVSVA [I7P]: the protein stability index was determined as 3.2.

As to EKALASILLQDHIRVLDVVVVSVA [D15V], the protein stability index amounted to 2.55. For EKALASILLQDHIRILDVVVVSVA [D15I], the protein stability index was 2.33.

For the variant EKALASILLQDHIRWLDVVVVSVA [D15W], the protein stability index was 2.5. As for EKALASILLQDHIDDLDVVVVSVA [R14D], the protein stability index came to 2.15.

For the variant EKALASILLQDHIKDLDVVVVSVA [R14K], the protein stability index came out at 3.11.

As for EKALASILLQDHIFDLDVVVVSVA [R14F], the protein stability index is 3.13. EKALASILLQDHITDLDVVVVSVA [R14T]: the protein stability index was found to be 1.49.

As to EKALASILLQDHINDLDVVVVSVA [R14N], the protein stability index stood at 3.67. In the case of EKALASILLQDHILDLDVVVVSVA [R14L], the protein stability index was found to be 3.36. Turning to EKALASILLQDHIPDLDVVVVSVA [R14P], the protein stability index turned out to be 1.55. Then EKALASILLQDHIWDLDVVVVSVA [R14W], with 3.58; and EKALASILLQDHIRDPDVVVVSVA [L16P], with 1.57; and EKALASILLQDHIRDQDVVVVSVA [L16Q], with 1.37. Consider EKALASILLQDHIRDNDVVVVSVA [L16N], for which the protein stability index is 1.46.

For EKALASILLQDHIRDKDVVVVSVA [L16K], the protein stability index stood at 1.23. Regarding EKALASILLQDHIRDDDVVVVSVA [L16D], the protein stability index turned out to be 1.67. Turning to EKALASILLQDHIRDSDVVVVSVA [L16S], the protein stability index is 2.37.

Consider EKALASILLQDHIRDRDVVVVSVA [L16R], for which the protein stability index stood at 1.03.

Turning to EKALASILLQDHIRDADVVVVSVA [L16A], the protein stability index was 1.31.

For EKALKSILLQDHIRDLDVVVVSVA [A5K], the protein stability index was found to be 1.74. Then EKALTSILLQDHIRDLDVVVVSVA [A5T], with 2.26; and EKALESILLQDHIRDLDVVVVSVA [A5E], with 2.29. Turning to EKALHSILLQDHIRDLDVVVVSVA [A5H], the protein stability index was 1.35. As to EKALWSILLQDHIRDLDVVVVSVA [A5W], the protein stability index stood at 2.08. For the variant EKALVSILLQDHIRDLDVVVVSVA [A5V], the protein stability index worked out at 2.9.

Turning to EKALQSILLQDHIRDLDVVVVSVA [A5Q], the protein stability index worked out at 3.29. As for EKALNSILLQDHIRDLDVVVVSVA [A5N], the protein stability index was determined as 3.63. CKALASILLQDHIRDLDVVVVSVA [E1C]: the protein stability index is 3.34.

With GKALASILLQDHIRDLDVVVVSVA [E1G], the protein stability index was determined as 3.59.

As for NKALASILLQDHIRDLDVVVVSVA [E1N], the protein stability index was determined as 2.93. RKALASILLQDHIRDLDVVVVSVA [E1R]: the protein stability index came out at 2.24. Then HKALASILLQDHIRDLDVVVVSVA [E1H], with 2.05; and IKALASILLQDHIRDLDVVVVSVA [E1I], with 2.5.

Regarding EKALASILMQDHIRDLDVVVVSVA [L9M], the protein stability index was 2.46. Take EKALASILPQDHIRDLDVVVVSVA [L9P]: the protein stability index turned out to be 1.61. With EKALASILEQDHIRDLDVVVVSVA [L9E], the protein stability index was determined as 3.11. As for EKALASILHQDHIRDLDVVVVSVA [L9H], the protein stability index was found to be 2.71. For the variant EKALASILKQDHIRDLDVVVVSVA [L9K], the protein stability index came out at 3.25. As for EKALASILLQGHIRDLDVVVVSVA [D11G], the protein stability index is 3.66. Regarding EKALASILLQKHIRDLDVVVVSVA [D11K], the protein stability index came out at 3.25. On to EKALASILLQEHIRDLDVVVVSVA [D11E], for which the protein stability index was 3.13. EKALASILLQPHIRDLDVVVVSVA [D11P]: the protein stability index was 3.03. Turning to EKALAPILLQDHIRDLDVVVVSVA [S6P], the protein stability index turned out to be 1.93.

Consider EKALAKILLQDHIRDLDVVVVSVA [S6K], for which the protein stability index worked out at 2.18. As to EKALALILLQDHIRDLDVVVVSVA [S6L], the protein stability index came to 3.06. In the case of EKALASILLQDHSRDLDVVVVSVA [I13S], the protein stability index came to 1.26. As to EKALASILLQDHTRDLDVVVVSVA [I13T], the protein stability index worked out at 3.04. For EKALASILLQDHDRDLDVVVVSVA [I13D], the protein stability index is 3.12. Then EKALASILLQDHYRDLDVVVVSVA [I13Y], with 3.9. As for EKALASILLSDHIRDLDVVVVSVA [Q10S], the protein stability index was found to be 2.87. Turning to EKALASILLNDHIRDLDVVVVSVA [Q10N], the protein stability index was 2.98. On to EKALASILLYDHIRDLDVVVVSVA [Q10Y], for which the protein stability index is 3.47. Turning to EKALASILLQDHIRDLMVVVVSVA [D17M], the protein stability index was 2.05.

As for EKALASILLQDHIRDLIVVVVSVA [D17I], the protein stability index was 1.36. With EKALASILLQDHIRDLYVVVVSVA [D17Y], the protein stability index came to 3.45. As for EKALASILLQDHIRDLAVVVVSVA [D17A], the figure is 3.11; as for EKALASILLQDHIRDLQVVVVSVA [D17Q], 1.93; as for EKALASILLQDHIRDLPVVVVSVA [D17P], 2.93. Take EKYLASILLQDHIRDLDVVVVSVA [A3Y]: the protein stability index came to 1.09. For EKELASILLQDHIRDLDVVVVSVA [A3E], the protein stability index stood at 1.51. As for EKALASILLQDHIRDLDPVVVSVA [V18P], the figure is 2.34. EKALASILLQDHIRDLDEVVVSVA [V18E]: the protein stability index was determined as 2.48. Turning to EKALASILLQDHIRDLDQVVVSVA [V18Q], the protein stability index is 1.59. Consider EKALASILLQDHIRDLDKVVVSVA [V18K], for which the protein stability index amounted to 2.27.

As for EKALASILLQDHIRDLDNVVVSVA [V18N], the protein stability index is 2. Turning to EKALASILLQDHIRDLDHVVVSVA [V18H], the protein stability index is 1.06. EKALASILLQDHIRDLDCVVVSVA [V18C]: the protein stability index was 1.66. Turning to EKALASILLQDHIRDLDDVVVSVA [V18D], the protein stability index was determined as 2.74. With EKALASILLQDHIRDLDIVVVSVA [V18I], the protein stability index turned out to be 2.02.

EKALASILLQDHIRDLDTVVVSVA [V18T]: the protein stability index was 3.46. Consider EKALASILLQDHIRDLDYVVVSVA [V18Y], for which the protein stability index was found to be 3.61.

As to EKALASILLQDHIRDLDVVVCSVA [V21C], the protein stability index came to 2.07.

Turning to EKALASILLQDHIRDLDVVVSSVA [V21S], the protein stability index is 1.81. For EKALASILLQDHIRDLDVVVQSVA [V21Q], the protein stability index came to 2.6. For EKALASILLQDHIRDLDVVVYSVA [V21Y], the protein stability index worked out at 1.75.

Turning to EKALASILLQDHIRDLDVVVASVA [V21A], the protein stability index amounted to 1.16. As for EKALASILLQDHIRDLDVVVPSVA [V21P], the figure is 2.56; as for EKALASILLQDHIRDLDVVVTSVA [V21T], 1.62; as for EKALASILLQDHIRDLDVVVDSVA [V21D], 3.39.

Turning to EKALASILLQDHIRDLDVVVHSVA [V21H], the protein stability index was found to be 1.51. Then EKALASILLQDHIRDLDVVVNSVA [V21N], with 2.16; and EKALASILLQDHIRDLDVVVISVA [V21I], with 2.63; and EKALASILLQDHIRDLDVVVRSVA [V21R], with 3.63. Then EKALASIGLQDHIRDLDVVVVSVA [L8G], with 2.62; and EKALASINLQDHIRDLDVVVVSVA [L8N], with 1.04; and EKALASIILQDHIRDLDVVVVSVA [L8I], with 2.89.

On to EKALASIALQDHIRDLDVVVVSVA [L8A], for which the protein stability index was determined as 2.99. Turning to EKALASIKLQDHIRDLDVVVVSVA [L8K], the protein stability index was determined as 1.14. Turning to EKALASIQLQDHIRDLDVVVVSVA [L8Q], the protein stability index was determined as 2.63. In the case of EKALASIWLQDHIRDLDVVVVSVA [L8W], the protein stability index came to 3.89. As for EKALASITLQDHIRDLDVVVVSVA [L8T], the figure is 1.55; as for EKALASIELQDHIRDLDVVVVSVA [L8E], 1.98. In the case of EKALASIPLQDHIRDLDVVVVSVA [L8P], the protein stability index is 2.34.
